Measurements: patent publication US20030091568A1, “Inhibitors for the formation of soluble human CD23” (priority 2000, published 2003)
Like-named read-outs stand apart in the source and are kept apart here.

How the values were obtained:
[1] = biological target: oxidized human insulin B chain (human); assay: cell-based or functional assay
ADAM9-Fc fusion protein = biological target: T1, ADAM9-Fc fusion protein (Mus musculus, UniProt Q61072); assay: Cleavage of oxidized insulin B chain by soluble ADAM9-Fc (MALDI-TOF); format: biochemical; conditions: 2 mM inhibitor
T1 construct: the complete extracellular domain of ADAM9 (aa 1-698); made in house; host or cells: HEK293-EBNA1 cells (pCEP4), purified on Protein A Sepharose
T1 sequence (Q61072 206-698 limits assumed): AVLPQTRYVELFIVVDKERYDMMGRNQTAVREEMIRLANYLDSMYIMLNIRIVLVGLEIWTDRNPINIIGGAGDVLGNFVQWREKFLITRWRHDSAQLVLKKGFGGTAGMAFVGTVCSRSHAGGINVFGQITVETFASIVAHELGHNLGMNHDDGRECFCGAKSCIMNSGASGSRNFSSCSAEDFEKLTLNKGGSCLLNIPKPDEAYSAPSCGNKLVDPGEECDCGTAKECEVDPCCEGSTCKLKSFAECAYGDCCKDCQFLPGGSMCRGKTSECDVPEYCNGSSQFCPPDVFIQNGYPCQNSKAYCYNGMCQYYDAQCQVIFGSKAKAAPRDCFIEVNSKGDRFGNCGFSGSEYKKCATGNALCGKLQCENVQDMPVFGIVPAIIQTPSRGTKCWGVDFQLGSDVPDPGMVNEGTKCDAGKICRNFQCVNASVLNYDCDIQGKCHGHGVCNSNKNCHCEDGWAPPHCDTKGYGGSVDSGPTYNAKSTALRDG
Description: The estimated cleavage sites (marked by an ↓), determined by mass spectrometry (MALDI-TOF), are indicated.

[2] = biological target: T2, human CD23b (full length cDNA, expressed on transfected COS or CHO cells) (human) (UniProt P06734); assay: cell-based or functional assay
T2 sequence (looked up): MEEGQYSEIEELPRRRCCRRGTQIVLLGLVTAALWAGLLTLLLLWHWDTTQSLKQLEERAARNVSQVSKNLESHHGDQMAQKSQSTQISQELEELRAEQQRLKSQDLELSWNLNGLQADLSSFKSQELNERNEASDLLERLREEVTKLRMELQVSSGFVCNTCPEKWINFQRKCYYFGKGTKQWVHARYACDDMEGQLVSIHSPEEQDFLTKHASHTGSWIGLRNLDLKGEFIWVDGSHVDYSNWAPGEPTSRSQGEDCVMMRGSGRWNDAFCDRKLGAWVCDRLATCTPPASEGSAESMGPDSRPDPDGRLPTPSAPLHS

[3] = biological target: T2, human CD23b (full length cDNA, expressed on transfected COS or CHO cells) (human); assay: cell-based or functional assay; remark: listed apart in the source

Sequence of oxidized human insulin B chain (human) (peptide, as listed by the source): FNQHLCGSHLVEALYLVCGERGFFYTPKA

## soluble ADAM9-Fc fusion protein (ADAM9 aa 1-698 fused to human IgG1 Fc)
[1]
  peptide cleavage (MALDI-TOF) (cleavage sites): 2

## c1cnc2c(c1)ccc1cccnc12 [o-phenanthroline]
ADAM9-Fc fusion protein
  inhibition of cleavage of the insulin B chain: completely inhibited

## ADAM9ACT (truncated cytoplasmic domain), transfected into COS cells (from UniProt Q61072 30-845) (enzyme)
[2]
  decrease in surface fluorescence intensity of CD23 (FACS, cotransfected COS cells, 48 h): 35 to 40%

B1: ADAM9 (full length cDNA, transfected into COS-7 or CHO AA8 cells) (enzyme, murine, UniProt Q61072 30-845, looked up)
chain: GRPDLEQTVHLSSYEIITPWRLTRERREALGPSSQQISYVIQAQGKQHIIHLERNTDLLPNDFVVYTYDKEGSLLSDHPNVQSHCHYRGYVEGVQNSAVAVSACFGLRGLLHLENASFGIEPLHNSSHFEHIFYPMDGIHQEPLRCGVSNRDTEKEGTQGDEEEHPSVTQLLRRRRAVLPQTRYVELFIVVDKERYDMMGRNQTAVREEMIRLANYLDSMYIMLNIRIVLVGLEIWTDRNPINIIGGAGDVLGNFVQWREKFLITRWRHDSAQLVLKKGFGGTAGMAFVGTVCSRSHAGGINVFGQITVETFASIVAHELGHNLGMNHDDGRECFCGAKSCIMNSGASGSRNFSSCSAEDFEKLTLNKGGSCLLNIPKPDEAYSAPSCGNKLVDPGEECDCGTAKECEVDPCCEGSTCKLKSFAECAYGDCCKDCQFLPGGSMCRGKTSECDVPEYCNGSSQFCPPDVFIQNGYPCQNSKAYCYNGMCQYYDAQCQVIFGSKAKAAPRDCFIEVNSKGDRFGNCGFSGSEYKKCATGNALCGKLQCENVQDMPVFGIVPAIIQTPSRGTKCWGVDFQLGSDVPDPGMVNEGTKCDAGKICRNFQCVNASVLNYDCDIQGKCHGHGVCNSNKNCHCEDGWAPPHCDTKGYGGSVDSGPTYNAKSTALRDGLLVFFFLIVPLVAAAIFLFIKRDELRKTFRKKRSQMSDGRNQANVSRQPGDPSISRPPGGPNVSRPPGGPGVSRPPGGPGVSRPPGGPGVSRPPPGHGNRFPVPTYAAKQPAQFPSRPPPPQPKISSQGNLIPARPAPAPPLYSSLT
[3]
  amount of s-CD23 in culture supernatant (ELISA), ADAM9 expression On against Off: 2 to 3 times
  decrease in surface bound CD23 (flow cytometry MFI, CHO clone 3, tetracycline removed): 40 to 50%
  decrease in surface fluorescence intensity of CD23 (FACS, cotransfected COS cells, 48 h): 35 to 40%
